The text below walks through data of a protein production outcome set (Wang et al. 2014).

The data set in a line: label from the status in PepcDB records.
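Note: failed if final PepcDB status was selected cloned or expressed and not failed if soluble or beyond.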

“MEDPLGRLEWIKFLSAFYDKEDKAENYFNQQVSKVMATENKVSSLKKPKVAFGMVDNGKVYIPAKNSYAAKMVDMAGGDYIFKDLNNKSGYITLEDFYSKSKDADVLIYSSSKEYTPSLKSMLSAAPILKTIKPVKNKKVWCFGKDYYQAIDKTDEIIEDLASIFHPESFKGYKIKHYSHLEHHHHHH”: the protein production entry is recorded as “not failed”.

On to “MEDRIPVIKRFTGGGTVIVDKSTLFVSLICNKDDVPNVQPYPRSVMAWSGSLYDEVFKSVNGFQLRENDYVFGDRKFGGNAQSIIKNRWIHHTSFLWDYDVRNMAYLKLPSRVPQYRLERDHTDFVCRMKDYIERSDFVEKTVKAVRNQFTLKQVNLEDIDSYAKGGYLKTTRLLTMEELEEAMADTIQNT”, for which the protein production result is on record as “failed”. Regarding “MEDSTATATSSSSTHYFSIFTNYPLISAVTSFTIAQFIKLFTSWYRERRWDLKQLIGSGGMPSSHSATVTALAVAIGLQEGFGGSHFAIALILASVVMYDATGVRLHAGRQAEVLNQIVYELPAEHPLAESRPLRELLGHTPPQVCRHMT”, the protein production result is “failed”. In the case of “MEEAKGPVKHVLLASFKDGVSPEKIEELIKGYANLVNLIEPMKAFHWGKDVSIENLHQGYTHIFESTFESKEAVAEYIAHPAHVEFATIFLGSLDKVLVIDYKPTSVSL” it was “not failed”; in that of “MEEAPQVGDRLHCYWNLVSKDREKVFEAVVTDVETVSFRELRENDELAREDGFRDAKQLEEEFQRMYQGELTDDTEFQVIRFRKLPVDEWEGKRIDEKAMITRRADILFDSGKFSKSELCYTAALRIDPNDVYILNRLGDNLTRLGRFDEALENYRRAIMIEPENPYIWNNMAITLLNAGRVDEALEASERALKIKHDPDLLYWRGVMLEVAGKPLEALESYERSLEIDPRNAEVWTARGNLLSDLGRMEEAIESYNSALELALEDEQDPNVWNRKGNALLELERFNEALECYRRAIEMEPENDVYWTNMGVALLELERFDEALEAFNRALMINPKNEDAGILREECLENL”, “failed”; in that of “MEEFAVVIIGAGPAGGQCARQLAQQGVRVLLVEQHSNFSQNNYSSAASPLETMALFDLPPGVVARYWRNLAIAATEKEQIWYSDQPRGVVFDFAKLRQFLADTVTKAGGQVWLGHRFWGYQQVGDGLEVTLRRSSKNSLSSDSVEKVEKVTVKTQVLIDATGSKRAVINCGQPKATDNNQYYRGIGTEYLITVDETTHQRFADTLVFFLGYRWSPQGYSWIFPMDNHQLKVGTAIFAGQHRYLGELKPLRSYTEAIIRDYLKLEKSQYHLEEIHGSVLDYAVNQGDTYHRGSVLAIGDAVSTVNFLGGEGIRHGMQGANIAVPFVADYLRGHVQAFEKYEQAMKAHFAEPWQRTEKLSQRVYLEFGDRQIDLGVTYLSYLRYDDVLDLLFHYRFDRIYGGITPLLLKKVAQFSQQCRQWLRKLSPLEHHHHHH”, “failed”. As for “MEEGPIKKKLKSAGQGSGKTDAFRNFEQFFFRLNTLYTFLICRKHVVPTFKTLCGPIETALKRTVTKEDLAMVMALMPRECVFKYIDENQIYTETKIFDFNNGGFQQKENDIFELKDVDDQNQTQKSTQLLIFEFIDGTMQRSWSASDRFSQIKIPTYTTEEMKKMISKREALFKSRLREFILEKEKANLDPFSELTNLAQKYIPRERDYEDPIEAMMKAKQESNEMSIPNYSNNSVITTIPQMIEKLKSTEFYASQIKHCFTIPSRTAKYKGLCFELAPEVYQGMEHENFYSHQADAINSLHQGENVIITTSTSSGKSLIYQLAAIDLLLKDPESTFMYIFPTKALAQDQKRAFKVILSKIPELKNAVVDTYDGDTEPEERAYIRKNARVIFTNPDMIHTSILPNHANWRHFLYHLKLVVVDELHIYKGLFGSHVALVMRRLLRLCHCFYENSGLQFISCSATLKSPVQHMKDMFGINEVTLIHEDGSPTGAKHLVVWNPPILPQHERKRENFIRESAKILVQLILNNVRTIAFCYVRRVCELLMKEVRNIFIETGREDLVTEVMSYRGGYSASDRRKIEREMFHGNLKAVISTNALELGIDIGGLDAVLMCGFPLSMANFHQQSGRAGRRNNDSLTLVVASDSPVDQHYVAHPESLLEVNNFESYQDLVLDFNNILILEGHIQCAAFELPINFERDKQYFTESHLRKICVERLHHNQDGYHASNRFLPWPSKCVSLRGGEEDQFAVVDITNGRNIIIEEIEASRTSFTLYDGGIFIHQGYPYLVKEFNPDERYAKVQRVDVDWVTNQRDFTDVDPQEIELIRSLRNSDVPVYFGKIKTTIIVFGFFKVDKYKRIIDAIETHNPPVIINSKGLWIDMPKYALEICQKKQLNVAGAIHGAQHAIMGMLPRFIVAGVDEIQTECKAPEKEFAERQTKRKRPARLIFYDSKGGKYGSGLCVKAFEHIDDIIESSLRRIEECPCSDGCPDCVAASFCKENSLVLSKPGAQVVLHCILGHSEDSFIDLIKDGPEPNMPEIKVETVIPVSEHVNFSDDFKIIDVRRATKDDTHTNEIIKKEI”, the entry is “failed”.

As to “MEEGVNMDIRPTRIELIRTRRRIRLAKKGLDLLKMKRSALIYEFLQISRTIRGMKENLRKEVVEALNIIKVASVLEGSLALERIANMSSDSRINVNSRNVMGVNIPTLEVSYNLSILSDVYRTVSVPVAIDDSIRRFQKLFYDLILIVEKENSLRNLLMEIDRTKRRSNAIENILIPRLEYQAKMIKMTLDERERDTFTTLKTIKKKIEAENDLEHHHHHH”, the protein production result is on record as “failed”. Turning to “MEEHNANPLRFETNPYHNIVIKDRKVMELTGVKQIDSFDANEFLLETAQGWLMIQGKDLKLGKLDTERGDVIINGIIEALSYVSNKKGTAKETMMSKLFR”, the protein production result is “failed”.

For the sequence “MEEKQERYSISEKTYQEFIDHTRVLALEERGIVQCGIATCRDFFSVYRKNQKKHMLLYTVRGKGWLESGACRYELEPGSLVVVPAGIENGFGMEDETWQIAWVFLSQHKEWSMVGENISYQLTPAPEVMYSCIQTLLRSINLSIDYGSAVGAHSVAQLELMLNMPSSESVSRNQLKLRRVFDLVQRQLHKDWSVEQLAALYPCSEPHLHRLTQQQFGRSPMAHLMRMRMEYAARLLRSTEWPIQHIGEIVGYPTSANFSTRFKAWSSMTPREFRQNGRIERDPEK”, the protein production result is given as “failed”. “MEEKQILCVGLVVLDVISLVDKYPKEDSEIRCLSQRWQRGGNASNSCTILSLLGAPCAFMGSMAPGHVADFVLDDLRRYSVDLRYTVFQTTGSVPIATVIINEASGSRTILYYDRSLPDVSATDFEKVDLTQFKWIHIEGRNASEQVKMLQRIDAHNTRQPPEQKIRVSVEVEKPREELFQLFGYGDVVFVSKDVAKHLGFQSAEEALRGLYGRVRKGAVLVCAWAEEGADALGPDGKLLHSDAFPPPRVVDTLGAGDTFNASVIFSLSQGRSVQEALRFGCQVAGKKCGLQGFDGIV”: the protein production result was “failed”. Take “MEELFCIGCGARIQTENKDAAGYTPRAALEKGLETGELYCQRCFRLRHYNEITDVHITDDEFLKLLHEVGDSDALVVNVIDIFDFNGSIIPGLSRFVAGNDVLLVGNKKDILPKSVKDGKVTQWLTERAHEEGLRPVDVILTSAQNHHAIKDLIDTIEKYRHGQDVYVVGVTNVGKSTLINAIIREITGSRDVITTSRFPGTTLDKIEIPLDDGSYIFDTPGIIHRHQMAHYLTAKNLKYVSPKKEIKPKTYQLNSEQTLFLAGLARFDFISGQKQGFTAYFDNNLNLHRTKLVGADEFYTKHVGKLLTPPTGKEVSDFPKLVRHEFTIKDKMDIVYSGLGWIRVKSEAENPVVVAAWAPEGVAVVLRKALI”: the protein production entry is reported as “failed”. Regarding “MEELVGLLRIRVKRGINLAQRDTLSSDPFVVITMGSQKLKTRVVENNCNPEWNEELTLALRHPDEPVNLIVYDKDTFTSHDKMGDAKIDIKPFLEVHKMGLQELPDGTEIKRVVPNRENCLAEASSIVSNNGKIVQNMILLLRNVECGEVEIQLEWIDIPGSRGL”, the protein production result is recorded as “failed”.

In the case of “MEEPKWLEGLLRTNFFSICPRHRETPRNECNMFCLSCQNAAFCFYCRSSFHIDHPVLQIRRSSYHDVVRVSEIENALDIRGVQTYVINSARVLFLNERPQPKNSSHEPFLIPFASVPWVARFVFLHLFSMQNSFL”, the protein production entry is on record as “not failed”. Consider “MEEPLRQESPTTFHAKTSDRGQIDLGISKHKTVAEAWEGYRQRRHRSTHLQAIETALLQQRNDRTEDEDIVLWKGKNDVYKPQFLTKETLNHMRTISMDVDWYKGVWFGHSTPKYSFCVWLAVLNRLSTGDRMTHWNGGQSAACVLCHNAPETRDHLFFSCDFASIVWSNLARGIYGDRFSTHWQDLIQAISGSWMTPLDSFFARYLFQATVHTIWRERNGRNHGEKPNSAALLIK”, for which the protein production entry is “failed”.

On to “MEERSQLFLEQYLSSVSREVSEKYTSFSADYFCADEYNANVCADLILRGEKRASCSLEYWYSQKGELMPQVGHLQVVTNWDGKPICIIEITSVSKCQYNQVSEDFAASEGEGDKSLAWWQEAHRNFFSRECHELGIEFREDMLLVLEHFKVVYH”, for which the protein production result was “not failed”. As for “MEESATVEVVVGRVGRAHGLRGDVVVEVRTDEPDARFGVGATVQIEGSRRDLTVVRSRWAKGCLIVAFDEVKDRQGAEELRGSVLVVDVEPNDDPDDPDEFWDRRLRGLTVVDESGKSRGAVKDVLHMPAQDVLVIDVSGEEHLVPFVHQLVPTVDVASGRIVVSGIPGLLDSNAEEAR”, the entry is “failed”; as for “MEESRESPAEHGYYMPAEWDSHAQTWIGWPERQDNWRHNALPAQRVFADVAKAISKFEPVTVCASPAQWENARKQLPEDIRVVEMSMNDSWFRDSGPTFIVRKRPVKLSSLNRNIAGIDWNFNAWGGANDGCYNDWSHDLLVSRKILALERIPRFQHSMILEGGSIHVDGEGTCLVTEECLLNKNRNPHMSKEQIEEELKKYLGVQSFIWLPRGLYGDEDTNGHIDNMCCFARPGVVLLSWTDDETDPQYERSVEALSVLSNSIDARGRKIQVIKLYIPEPLYMTEEESSGITQDGEAIPRLAGTRLAASYVNFYIANGGIIAPQFGDPIRDKEAIRVLSDTFPHHSVVGIENAREIVLAGGNIHCITQQQPAEPTSVAENGH”, “not failed”. Consider “MEEVLKLKIPASTANLGVGFDSIGMALDKYLHMSIRKIERSNWEFLYYSSELEGLPKDENNYIYQTALNVAHKYNVTLPSLQIEMRSDIPLARGLGSSASALVGALFIANYFGNIQLSKYELLQLATEIEGHPDNVAPTIYGGLIAGFYNPITKIT”, for which the protein production result was “failed”. “MEFCPKCKSLMIYQGDKLVCRKCGYEKEADDSEELVIKVERNKEDVPVIEGENLKTLPTTKAICPACGHNEAFWWLRQLRAADESEVRFFRCTKCGKTWREYD”: the protein production result is “failed”. On to “MEFEMLETETNGTIIKVIGVGGAGGNAVQHMINKGVQGVDFVVMNTDAQALSRSRAPSVIQLGNTGLGAGAKPEMGRAAAEEARERIADALRGAHMVFITAGMGGGTGTGAAPVVAQIAKEMGILTVGVVSKPFEFEGGKRMRVAEAGSQQLEDHVDSLIVVLNDKLFEVMGDDAEMDKCFQCADDVLNNAVAGIAEIINVDGLVNVDFEDVKTVMGEQGKAMMGTATVAGVDRARLAAEQAVASPLLEGVDLSGARGVLVNITSSRSLRLSETREVMNTIKSYAADDATVIFGAVYDDAMGDALRVTVVATGLGRAAKKQQSAPMTLLRTGTDNQPISAAPQGYAASHHVSTGDYGAFDTPAVWRNSRETAASHVQALQEKGVDTYDIPAFLRKQAD”, for which the protein production entry was “not failed”. In the case of “MEFTAEQLSQYNGTDESKPIYVAIKGRVFDVTTGKSFYGSGGDYSMFAGKDASRALGKMSKNEEDVSPSLEGLTEKEINTLNDWETKFEAKYPVVGRVVS”, the protein production entry was “not failed”.
